Target: E. coli β fused to the B42 transcriptional activation domain (plasmid pB42ADβ) (Escherichia coli) (UniProt P0A988)

LexA-PolB (779-783) fusion (plasmid pLexAPolB(779-783)), sequence (P0A7C2 other isoform, or with tags, fused parts or gaps limits assumed): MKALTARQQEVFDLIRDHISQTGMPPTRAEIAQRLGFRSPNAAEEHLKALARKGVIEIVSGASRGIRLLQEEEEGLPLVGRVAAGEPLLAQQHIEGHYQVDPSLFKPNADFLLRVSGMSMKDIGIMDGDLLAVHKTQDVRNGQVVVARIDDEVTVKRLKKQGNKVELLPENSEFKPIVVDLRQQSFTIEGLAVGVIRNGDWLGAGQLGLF
LexA-MutS (802-818) fusion (plasmid pLexAMutS(802-818)), sequence (P0A7C2 other isoform, or with tags, fused parts or gaps): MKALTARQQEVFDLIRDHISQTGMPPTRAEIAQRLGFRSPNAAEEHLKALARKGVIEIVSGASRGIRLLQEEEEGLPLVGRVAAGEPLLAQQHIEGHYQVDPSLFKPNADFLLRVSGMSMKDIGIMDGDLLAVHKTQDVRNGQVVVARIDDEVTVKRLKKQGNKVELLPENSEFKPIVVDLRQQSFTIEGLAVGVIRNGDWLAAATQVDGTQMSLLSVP
LexA-DinB (307-317) fusion (plasmid pLexADinB (307-317)), sequence (P0A7C2 other isoform, or with tags, fused parts or gaps): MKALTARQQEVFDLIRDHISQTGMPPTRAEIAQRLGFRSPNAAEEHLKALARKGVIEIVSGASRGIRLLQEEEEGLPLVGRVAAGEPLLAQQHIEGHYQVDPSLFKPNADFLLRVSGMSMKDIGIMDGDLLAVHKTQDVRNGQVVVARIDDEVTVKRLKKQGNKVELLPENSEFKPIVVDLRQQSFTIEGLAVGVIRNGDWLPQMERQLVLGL

First: LexA-MutS (802-818) fusion (plasmid pLexAMutS(802-818)) (from UniProt P0A7C2 1-202)
Second: LexA-UmuC (351-365) fusion (plasmid pLexAUmuC(351-365)) (from UniProt P0A7C2 1-202)
The β-gal activity Miller units (yeast two-hybrid; interact with β: +) of the first is lower: 43.8 Miller units for the first, 94.8 Miller units for the second.

Compared with “LexA-DinB (307-317) fusion (plasmid pLexADinB (307-317)) (from UniProt P0A7C2 1-202)”, “LexA-DnaE (736-991) fusion (from UniProt P0A7C2 1-202; P10443 736-991)” is higher in β-gal activity Miller units (yeast two-hybrid; interact with β: +): 75.1 Miller units for the first, 135 Miller units for the second.

Compared with “LexA-DnaE (908-931) fusion (plasmid pLexADnaE (908-931)) (from UniProt P0A7C2 1-202; P10443 908-931)”, “LexA-DnaE (542-991) fusion (plasmid pLexADnaE (542-991)) (from UniProt P0A7C2 1-202; P10443 542-991)” is higher in β-gal activity Miller units (yeast two-hybrid; interact with β: +): 32.3 Miller units for the first, 60.1 Miller units for the second.

“LexA-PolB (779-783) fusion (plasmid pLexAPolB(779-783)) (from UniProt P0A7C2 1-202)” was tested, and the β-gal activity Miller units (yeast two-hybrid; interact with β: +) was 69.6 Miller units.

Going from “LexA-DnaE (896-919) fusion (plasmid pLexADnaE (896-919)) (from UniProt P0A7C2 1-202; P10443 896-919)” to pLexA, the β-gal activity Miller units (yeast two-hybrid; interact with β: -) rises from 0.1 Miller units to 1.5 Miller units.

With “LexA-DnaE (542-735) fusion (from UniProt P0A7C2 1-202; P10443 542-735)” the β-gal activity Miller units (yeast two-hybrid; interact with β: -) was 1.1 Miller units.

Target: Escherichia coli β subunit of DNA Polymerase III (β protein) (Escherichia coli) (UniProt P0A988)

Work on pep18 Ac-DLF-NH2 (peptide) yielded an IC50 of 135 µM.
